Substitutions are numbered along the chain they refer to. Numbers in names are those of the source.
B1: dBBDu183H P61V/dBBDu072L (antibody, name in Kabat numbering, V domains shown)
VH: QVQLVESGGGLVQPGRSLRLSCAASGFTFSNAWMHWVRQAPGKGLEWVAQIKDKGNAYAAYYAVSVKGRFTISRDDSKNSIYLQMNSLKTEDTAVYYCHYVHYASASTVLPAFGVDAWGQGTTVTVSS
VL: DIVMTQSPLSLPVTPGEPASISCQASQELVHMNRNTYLHWYQQKPGQAPRLLIYKVSNRFPGVPDRFSGSGSGTDFTLKISRVEAEDVGVYYCAQGTSVPFTFGQGTKLEIK
B2: dBBDu183H A98D/dBBDu072L (antibody, name in Kabat numbering, V domains shown)
VH: B1 VH with V64P, A104D
VL: B1 VL
B3: CE115HA000/GLS3000 T92S (antibody, IgG1, name in Kabat numbering, V domains shown)
VH: QVQLVESGGGVVQPGRSLRLSCAASGFTFSNAWMHWVRQAPGKGLEWVAQIKAKSNNYATYYAESVKGRFTISRDDSKNSLYLQMNSLKTEDTAVYYCRYVHYGAYYGVDAWGQGTTVTVSS
VL: B1 VL with Q24R, A25S, E28S, M32S, P61S, A94G, T97S, S98Q, F101Y
notes: one-arm IgG1
B4: CE115HA000/GLS3000 T92Y (antibody, IgG1, name in Kabat numbering, V domains shown)
VH: B3 VH
VL: B1 VL with Q24R, A25S, E28S, M32S, P61S, A94G, T97Y, S98Q, F101Y
notes: one-arm IgG1
B5: CE115HA000/GLS3000 T97P (antibody, IgG1, name in Kabat numbering, V domains shown)
VH: B3 VH
VL: B1 VL with Q24R, A25S, E28S, M32S, P61S, A94G, S98Q, F101Y, T102P
notes: one-arm IgG1
B6: CE115HA000/GLS3000 V27cD (antibody, IgG1, name in Kabat numbering, V domains shown)
VH: B3 VH
VL: B1 VL with Q24R, A25S, E28S, V30D, M32S, P61S, A94G, S98Q, F101Y
notes: one-arm IgG1
B7: CE115HA000/GLS3000 V27cE (antibody, IgG1, name in Kabat numbering, V domains shown)
VH: B3 VH
VL: B1 VL with Q24R, A25S, E28S, V30E, M32S, P61S, A94G, S98Q, F101Y
notes: one-arm IgG1
B8: CE115HA000/GLS3000 V27cI (antibody, IgG1, name in Kabat numbering, V domains shown)
VH: B3 VH
VL: B1 VL with Q24R, A25S, E28S, V30I, M32S, P61S, A94G, S98Q, F101Y
notes: one-arm IgG1
B9: CE115HA000/GLS3000 V27cL (antibody, IgG1, name in Kabat numbering, V domains shown)
VH: B3 VH
VL: B1 VL with Q24R, A25S, E28S, V30L, M32S, P61S, A94G, S98Q, F101Y
notes: one-arm IgG1
B10: CE115HA000/GLS3000 V27cP (antibody, IgG1, name in Kabat numbering, V domains shown)
VH: B3 VH
VL: B1 VL with Q24R, A25S, E28S, V30P, M32S, P61S, A94G, S98Q, F101Y
notes: one-arm IgG1
B11: CE115HA000/GLS3000 V27cS (antibody, IgG1, name in Kabat numbering, V domains shown)
VH: B3 VH
VL: B1 VL with Q24R, A25S, E28S, V30S, M32S, P61S, A94G, S98Q, F101Y
notes: one-arm IgG1
B12: CE115HA000/GLS3000 V27cY (antibody, IgG1, name in Kabat numbering, V domains shown)
VH: B3 VH
VL: B1 VL with Q24R, A25S, E28S, V30Y, M32S, P61S, A94G, S98Q, F101Y
notes: one-arm IgG1
B13: CE115HA000/GLS3000 V51D (antibody, IgG1, name in Kabat numbering, V domains shown)
VH: B3 VH
VL: B1 VL with Q24R, A25S, E28S, M32S, V56D, P61S, A94G, S98Q, F101Y
notes: one-arm IgG1
B14: CE115HA000/GLS3000 V51E (antibody, IgG1, name in Kabat numbering, V domains shown)
VH: B3 VH
VL: B1 VL with Q24R, A25S, E28S, M32S, V56E, P61S, A94G, S98Q, F101Y
notes: one-arm IgG1
B15: CE115HA000/GLS3000 V51G (antibody, IgG1, name in Kabat numbering, V domains shown)
VH: B3 VH
VL: B1 VL with Q24R, A25S, E28S, M32S, V56G, P61S, A94G, S98Q, F101Y
notes: one-arm IgG1
B16: CE115HA000/GLS3000 V51I (antibody, IgG1, name in Kabat numbering, V domains shown)
VH: B3 VH
VL: B1 VL with Q24R, A25S, E28S, M32S, V56I, P61S, A94G, S98Q, F101Y
notes: one-arm IgG1
B17: CE115HA000/GLS3000 V51P (antibody, IgG1, name in Kabat numbering, V domains shown)
VH: B3 VH
VL: B1 VL with Q24R, A25S, E28S, M32S, V56P, P61S, A94G, S98Q, F101Y
notes: one-arm IgG1
B18: CE115HA000/GLS3000 V94A (antibody, IgG1, name in Kabat numbering, V domains shown)
VH: B3 VH
VL: B1 VL with Q24R, A25S, E28S, M32S, P61S, A94G, S98Q, V99A, F101Y
notes: one-arm IgG1
B19: CE115HA000/GLS3000 V94D (antibody, IgG1, name in Kabat numbering, V domains shown)
VH: B3 VH
VL: B1 VL with Q24R, A25S, E28S, M32S, P61S, A94G, S98Q, V99D, F101Y
notes: one-arm IgG1
B20: CE115HA000/GLS3000 V94E (antibody, IgG1, name in Kabat numbering, V domains shown)
VH: B3 VH
VL: B1 VL with Q24R, A25S, E28S, M32S, P61S, A94G, S98Q, V99E, F101Y
notes: one-arm IgG1
B21: CE115HA000/GLS3000 V94F (antibody, IgG1, name in Kabat numbering, V domains shown)
VH: B3 VH
VL: B1 VL with Q24R, A25S, E28S, M32S, P61S, A94G, S98Q, V99F, F101Y
notes: one-arm IgG1
B22: CE115HA000/GLS3000 V94G (antibody, IgG1, name in Kabat numbering, V domains shown)
VH: B3 VH
VL: B1 VL with Q24R, A25S, E28S, M32S, P61S, A94G, S98Q, V99G, F101Y
notes: one-arm IgG1
B23: CE115HA000/GLS3000 V94H (antibody, IgG1, name in Kabat numbering, V domains shown)
VH: B3 VH
VL: B1 VL with Q24R, A25S, E28S, M32S, P61S, A94G, S98Q, V99H, F101Y
notes: one-arm IgG1
B24: CE115HA000/GLS3000 V94I (antibody, IgG1, name in Kabat numbering, V domains shown)
VH: B3 VH
VL: B1 VL with Q24R, A25S, E28S, M32S, P61S, A94G, S98Q, V99I, F101Y
notes: one-arm IgG1
B25: CE115HA000/GLS3000 V94K (antibody, IgG1, name in Kabat numbering, V domains shown)
VH: B3 VH
VL: B1 VL with Q24R, A25S, E28S, M32S, P61S, A94G, S98Q, V99K, F101Y
notes: one-arm IgG1
B26: CE115HA000/GLS3000 V94L (antibody, IgG1, name in Kabat numbering, V domains shown)
VH: B3 VH
VL: B1 VL with Q24R, A25S, E28S, M32S, P61S, A94G, S98Q, V99L, F101Y
notes: one-arm IgG1
B27: CE115HA000/GLS3000 V94M (antibody, IgG1, name in Kabat numbering, V domains shown)
VH: B3 VH
VL: B1 VL with Q24R, A25S, E28S, M32S, P61S, A94G, S98Q, V99M, F101Y
notes: one-arm IgG1
B28: CE115HA000/GLS3000 V94N (antibody, IgG1, name in Kabat numbering, V domains shown)
VH: B3 VH
VL: B1 VL with Q24R, A25S, E28S, M32S, P61S, A94G, S98Q, V99N, F101Y
notes: one-arm IgG1
B29: CE115HA000/GLS3000 V94P (antibody, IgG1, name in Kabat numbering, V domains shown)
VH: B3 VH
VL: B1 VL with Q24R, A25S, E28S, M32S, P61S, A94G, S98Q, V99P, F101Y
notes: one-arm IgG1
B30: CE115HA000/GLS3000 V94Q (antibody, IgG1, name in Kabat numbering, V domains shown)
VH: B3 VH
VL: B1 VL with Q24R, A25S, E28S, M32S, P61S, A94G, S98Q, V99Q, F101Y
notes: one-arm IgG1
B31: CE115HA000/GLS3000 V94R (antibody, IgG1, name in Kabat numbering, V domains shown)
VH: B3 VH
VL: B1 VL with Q24R, A25S, E28S, M32S, P61S, A94G, S98Q, V99R, F101Y
notes: one-arm IgG1
B32: CE115HA000/GLS3000 V94S (antibody, IgG1, name in Kabat numbering, V domains shown)
VH: B3 VH
VL: B1 VL with Q24R, A25S, E28S, M32S, P61S, A94G, S98Q, V99S, F101Y
notes: one-arm IgG1
B33: CE115HA000/GLS3000 V94T (antibody, IgG1, name in Kabat numbering, V domains shown)
VH: B3 VH
VL: B1 VL with Q24R, A25S, E28S, M32S, P61S, A94G, S98Q, V99T, F101Y
notes: one-arm IgG1
B34: CE115HA000/GLS3000 V94W (antibody, IgG1, name in Kabat numbering, V domains shown)
VH: B3 VH
VL: B1 VL with Q24R, A25S, E28S, M32S, P61S, A94G, S98Q, V99W, F101Y
notes: one-arm IgG1
B35: CE115HA000/GLS3000 V94Y (antibody, IgG1, name in Kabat numbering, V domains shown)
VH: B3 VH
VL: B1 VL with Q24R, A25S, E28S, M32S, P61S, A94G, S98Q, V99Y, F101Y
notes: one-arm IgG1
B36: CE115HA000/GLS3000 Y32A (antibody, IgG1, name in Kabat numbering, V domains shown)
VH: B3 VH
VL: B1 VL with Q24R, A25S, E28S, M32S, Y37A, P61S, A94G, S98Q, F101Y
notes: one-arm IgG1
B37: CE115HA000/GLS3000 Y32D (antibody, IgG1, name in Kabat numbering, V domains shown)
VH: B3 VH
VL: B1 VL with Q24R, A25S, E28S, M32S, Y37D, P61S, A94G, S98Q, F101Y
notes: one-arm IgG1
B38: CE115HA000/GLS3000 Y32F (antibody, IgG1, name in Kabat numbering, V domains shown)
VH: B3 VH
VL: B1 VL with Q24R, A25S, E28S, M32S, Y37F, P61S, A94G, S98Q, F101Y
notes: one-arm IgG1
B39: CE115HA000/GLS3000 Y32P (antibody, IgG1, name in Kabat numbering, V domains shown)
VH: B3 VH
VL: B1 VL with Q24R, A25S, E28S, M32S, Y37P, P61S, A94G, S98Q, F101Y
notes: one-arm IgG1
B40: CE115HA000/GLS3000 Y96D (antibody, IgG1, name in Kabat numbering, V domains shown)
VH: B3 VH
VL: B1 VL with Q24R, A25S, E28S, M32S, P61S, A94G, S98Q, F101D
notes: one-arm IgG1
B41: CE115HA000/GLS3000 Y96E (antibody, IgG1, name in Kabat numbering, V domains shown)
VH: B3 VH
VL: B1 VL with Q24R, A25S, E28S, M32S, P61S, A94G, S98Q, F101E
notes: one-arm IgG1
B42: CE115HA000/GLS3000 Y96F (antibody, IgG1, name in Kabat numbering, V domains shown)
VH: B3 VH
VL: B1 VL with Q24R, A25S, E28S, M32S, P61S, A94G, S98Q
notes: one-arm IgG1
B43: CE115HA000/GLS3000 Y96H (antibody, IgG1, name in Kabat numbering, V domains shown)
VH: B3 VH
VL: B1 VL with Q24R, A25S, E28S, M32S, P61S, A94G, S98Q, F101H
notes: one-arm IgG1
B44: CE115HA000/GLS3000 Y96L (antibody, IgG1, name in Kabat numbering, V domains shown)
VH: B3 VH
VL: B1 VL with Q24R, A25S, E28S, M32S, P61S, A94G, S98Q, F101L
notes: one-arm IgG1

Target: T1, Human CD3eg linker (human)
T1 construct: single-chain construct; also called recombinant human CD3
T1 chain: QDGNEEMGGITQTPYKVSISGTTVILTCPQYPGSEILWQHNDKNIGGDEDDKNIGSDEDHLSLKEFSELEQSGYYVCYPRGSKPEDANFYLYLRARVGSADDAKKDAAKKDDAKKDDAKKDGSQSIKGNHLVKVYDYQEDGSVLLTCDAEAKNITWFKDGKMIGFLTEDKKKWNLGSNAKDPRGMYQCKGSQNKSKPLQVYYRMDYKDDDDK
Assay: SPR, vs unmutated H183/L072

fold change of affinity [fold]	Binder
1.8	B1
0.4	B2

Each binder was assayed against T2, CD3 epsilon homodimer protein (UniProt P07766 23-126) (assay: SPR, antibody over immobilised CD3e homodimer;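 note: SPR at 25 °C with CD3 epsilon homodimer amine-coupled to a CM4 sensor chip and antibody flowed over as analyte in HBS-EP+ running buffer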).
T2 construct: also called CD3 (CD3 epsilon)
T2 sequence (P07766 23-126): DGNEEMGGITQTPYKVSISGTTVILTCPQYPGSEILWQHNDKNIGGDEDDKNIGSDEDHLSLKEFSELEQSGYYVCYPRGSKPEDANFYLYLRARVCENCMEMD

KD ratio to GLS3000	Binder
0.81	B3
2.55	B4
3.35	B5
3.21	B6
1.1	B7
1.03	B8
0.81	B9
3.71	B10
3.04	B11
1.25	B12
1.5	B13
0.88	B14
0.83	B15
0.69	B16
6	B17
1.05	B18
1.05	B19
1.18	B20
1.75	B21
2.59	B22
1.16	B23

KD ratio to GLS3000	Binder
1.46	B24
0.91	B25
3.06	B26
2.74	B27
0.96	B28
1.1	B29
1.1	B30
1.11	B31
0.81	B32
1.06	B33
1.81	B34
2.45	B35
66.8	B36
25.9	B37
4.51	B38
62	B39
40.9	B40
46.8	B41
0.86	B42
80.3	B43
1.84	B44
